Reference: US20120214741A1 (BEN GURION UNIVERSITY OF THE NEGEV RESEARCH AND DEVELOPMENT …, published 2012)
One block for each binder: values may come before it.

How the values were obtained:
[1] = target: T1, Rat brain HK-I (hexokinase-I), purified (rat, UniProt P05708 1-918); test: detachment of HK-I from rat brain mitochondria by the peptide (competition); HK-I activity in the supernatant
T1 construct: Purified from rat brain; Used in the planar lipid bilayer and isolated-mitochondria assays
T1 sequence (looked up): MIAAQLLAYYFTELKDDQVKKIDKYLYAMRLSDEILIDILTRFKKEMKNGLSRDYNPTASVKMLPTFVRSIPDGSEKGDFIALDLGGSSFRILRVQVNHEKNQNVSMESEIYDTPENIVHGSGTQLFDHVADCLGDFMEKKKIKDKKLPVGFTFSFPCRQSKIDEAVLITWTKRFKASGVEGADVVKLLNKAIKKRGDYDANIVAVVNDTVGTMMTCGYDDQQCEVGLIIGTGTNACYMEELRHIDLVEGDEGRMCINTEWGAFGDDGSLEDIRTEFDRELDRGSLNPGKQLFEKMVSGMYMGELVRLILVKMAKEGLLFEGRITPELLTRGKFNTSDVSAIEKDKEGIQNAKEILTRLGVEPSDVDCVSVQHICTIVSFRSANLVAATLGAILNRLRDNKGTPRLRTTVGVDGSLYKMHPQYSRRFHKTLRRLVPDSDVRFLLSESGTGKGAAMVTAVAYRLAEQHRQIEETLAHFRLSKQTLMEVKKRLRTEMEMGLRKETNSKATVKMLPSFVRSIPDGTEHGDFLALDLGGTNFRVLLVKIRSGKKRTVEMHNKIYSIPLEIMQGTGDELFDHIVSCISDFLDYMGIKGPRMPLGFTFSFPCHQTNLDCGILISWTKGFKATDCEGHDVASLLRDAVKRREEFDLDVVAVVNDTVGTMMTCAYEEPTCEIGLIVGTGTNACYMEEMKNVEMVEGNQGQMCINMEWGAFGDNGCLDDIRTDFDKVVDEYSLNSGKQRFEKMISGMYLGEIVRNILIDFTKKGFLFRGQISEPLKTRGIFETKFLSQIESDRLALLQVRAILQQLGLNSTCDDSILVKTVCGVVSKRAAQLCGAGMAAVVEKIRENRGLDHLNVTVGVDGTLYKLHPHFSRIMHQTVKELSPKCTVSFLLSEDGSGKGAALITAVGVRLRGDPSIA

[2] = target: T1, Rat brain HK-I (hexokinase-I), purified; test: purified proteins, VDAC1 reconstituted into a planar lipid bilayer, channel recording
Experimental: Only PLBs with a resistance greater than 100 GΩ were used. Purified VDAC (about 1 ng) was added to the chamber defined as the cis side. […] Sigma Plot 2000 scientific software was used for data analyses. Experiments were performed at 23-25° C.

binding result [1]: binds
B1: Peptide LP1 (VDAC1 loop 1 peptide) (peptide)
peptide: WTEYGLTFTEKWNTD
notes: No CPP or Trp zipper in these assays; also called LP1 peptide

binding result [2]: binds
B2: native mVDAC1 (mouse VDAC1), purified recombinant (other)
chain: MAVPPTYADLGKSARDVFTKGYGFGLIKLDLKTKSENGLEFTSSGSANTETTKVNGSLETKYRWTEYGLTFTEKWNTDNTLGTEITVEDQLARGLKLTFDSSFSPNTGKKNAKIKTGYKREHINLGCDVDFDIAGPSIRGALVLGYEGWLAGYQMNFETSKSRVTQSNFAVGYKTDEFQLHTNVNDGTEFGGSIYQKVNKKLETAVNLAWTAGNSNTRFGIAAKYQVDPDACFSAKVNNSSLIGLGYTQTLKPGIKLTLSALLDGKNVNAGGHKLGLGLEFQA
notes: Extracted from mitochondria of yeast expressing mVDAC1, purified and reconstituted into a planar lipid bilayer; also called native VDAC1
